Measurements reported in PMC10048814.
Changes are numbered by the printed parent chain.

Tests used:
Assay in all cases: fluorescence polarization
Conditions in all cases: 50 mM HEPES-KOH pH 7.5, 10 mM potassium acetate, 2 mM beta-mercaptoethanol, 0.1 mg/mL BSA, 5 mM MgCl2, 2 nM DNA, temperature not stated
[1] = biological target: T1, DNA polymerase eta core, wild-type (Homo sapiens) (UniProt Q9Y253)
T1 sequence: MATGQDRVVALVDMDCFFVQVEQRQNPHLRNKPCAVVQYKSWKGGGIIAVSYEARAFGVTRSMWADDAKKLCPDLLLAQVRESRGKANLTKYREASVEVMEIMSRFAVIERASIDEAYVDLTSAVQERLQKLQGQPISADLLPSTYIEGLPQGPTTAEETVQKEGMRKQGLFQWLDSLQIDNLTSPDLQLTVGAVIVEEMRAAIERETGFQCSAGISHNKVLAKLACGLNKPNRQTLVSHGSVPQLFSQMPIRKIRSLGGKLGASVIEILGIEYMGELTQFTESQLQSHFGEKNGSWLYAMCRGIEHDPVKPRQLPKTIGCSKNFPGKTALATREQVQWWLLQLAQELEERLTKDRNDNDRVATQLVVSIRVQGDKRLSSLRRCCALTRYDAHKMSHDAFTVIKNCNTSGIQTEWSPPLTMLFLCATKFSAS

[2] = biological target: T2, pol eta core I272T I272T (Homo sapiens) (UniProt Q9Y253)
T2 sequence: T1 sequence with I272T

[3] = biological target: T3, pol eta core G209V G209V (Homo sapiens) (UniProt Q9Y253)
T3 sequence: T1 sequence with G209V

[4] = biological target: T4, pol eta core I147N I147N (Homo sapiens) (UniProt Q9Y253)
T4 sequence: T1 sequence with I147N

[5] = biological target: T5, pol eta core C34W C34W (Homo sapiens) (UniProt Q9Y253)
T5 sequence: T1 sequence with C34W

[6] = biological target: T6, pol eta core R334G R334G (Homo sapiens) (UniProt Q9Y253)
T6 sequence: T1 sequence with R334G

[7] = biological target: T7, pol eta core S296F S296F (Homo sapiens) (UniProt Q9Y253)
T7 sequence: T1 sequence with S296F

[8] = biological target: T8, pol eta core T329I T329I (Homo sapiens) (UniProt Q9Y253)
T8 sequence: T1 sequence with T329I

[9] = biological target: T9, pol eta core R167Q R167Q (Homo sapiens) (UniProt Q9Y253)
T9 sequence: T1 sequence with R167Q

[10] = cis-syn cyclobutane thymine dimer at T7-T8 of the 25-mer template

Sequence	Kd [1] [nM]	Kd [2] [nM]	Kd [3] [nM]	Kd [4] [nM]	Kd [5] [nM]	Kd [6] [nM]	Kd [7] [nM]	Kd [8] [nM]	Kd [9] [nM]	Kd [1, 10] [nM]	Kd [2, 10] [nM]	Kd [3, 10] [nM]	Kd [4, 10] [nM]	Kd [5, 10] [nM]	Kd [6, 10] [nM]	Kd [7, 10] [nM]	Kd [8, 10] [nM]	Kd [9, 10] [nM]
CACCATCCACTAC / ATGTAGTTGTAGTGGATGGTGGTAC [13-FAM-mer/25-TT-mer]	10	8.5	8.4	6.7	6.1	11	10	5	9.5									
CACCATCCACTAC / ATGTAGTTGTAGTGGATGGTGGTAC [13-FAM-mer/25-CTD-mer]										11	11	11	7	5.9	12	14	5.9	18
